How the values were obtained:
[1] = biological target: full length human tau protein 2N4R (hT40) (human) (UniProt P10636); assay: Simoa 3-step sandwich, S1D12 capture beads, biotinylated HT7 detector, recombinant hTau40 standard curve; fourth of 8 cells of a shifted row
[2] = biological target: full length human tau protein 2N4R (hT40) (human) (UniProt P10636); assay: Simoa 3-step sandwich, BT2 capture beads, biotinylated HT7 detector, recombinant hTau40 standard curve; sixth of 8 cells of a shifted row
[3] = biological target: full length human tau protein 2N4R (hT40) (human) (UniProt P10636); assay: Simoa 3-step sandwich, S1D12 capture beads, biotinylated BT2 detector, recombinant hTau40 standard curve; fifth of 8 cells of a shifted row
[4] = biological target: full length human tau protein 2N4R (hT40) (human) (UniProt P10636); assay: Simoa 3-step sandwich, S1D12 capture beads, biotinylated Tau12 detector, recombinant hTau40 standard curve; third of 8 cells of a shifted row
[5] = biological target: full length human tau protein 2N4R (hT40) (human) (UniProt P10636); assay: Simoa, Tau12 on beads, biotinylated HT7 detector
[6] = biological target: full length human tau protein 2N4R (hT40) (human) (UniProt P10636); assay: Simoa 3-step sandwich, BT2 capture beads, biotinylated Tau12 detector, recombinant hTau40 standard curve; first of 8 cells of a shifted row, read in the order of the assay heads
[7] = biological target: full length human tau protein 2N4R (hT40) (human) (UniProt P10636); assay: Simoa 3-step sandwich, S1D12 capture beads, biotinylated Tau46 detector, recombinant hTau40 standard curve; seventh of 8 cells of a shifted row

full length human tau protein 2N4R (hT40) (human), sequence (P10636 other isoform, or with tags, fused parts or gaps limits assumed): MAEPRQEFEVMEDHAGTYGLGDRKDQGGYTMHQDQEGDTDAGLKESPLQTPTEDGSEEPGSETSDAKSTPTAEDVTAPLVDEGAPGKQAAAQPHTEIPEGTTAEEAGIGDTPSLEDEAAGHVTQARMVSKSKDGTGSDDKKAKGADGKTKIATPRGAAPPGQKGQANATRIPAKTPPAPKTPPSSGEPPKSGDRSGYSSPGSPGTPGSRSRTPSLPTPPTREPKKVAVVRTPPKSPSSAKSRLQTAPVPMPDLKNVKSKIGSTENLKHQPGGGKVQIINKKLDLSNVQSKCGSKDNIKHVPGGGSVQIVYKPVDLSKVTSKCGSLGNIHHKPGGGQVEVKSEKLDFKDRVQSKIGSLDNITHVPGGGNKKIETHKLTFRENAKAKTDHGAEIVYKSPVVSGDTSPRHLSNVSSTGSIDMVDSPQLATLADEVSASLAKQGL

## HT7 (antibody)
[1]
  Assay limit of detection: 0.25 pg/mL
[2]
  Assay limit of detection: 0.25 pg/mL

## BT2 (antibody)
[3]
  Assay limit of detection: 10.8 pg/mL

## Tau12 mAb (antibody)
[4]
  Assay limit of detection: 0.25 pg/mL
[5]
  Simoa limit of detection: 2.2 pg/mL
[6]
  Assay limit of detection: 0.25 pg/mL

## Tau46 (antibody)
[7]
  Assay limit of detection: 2.2 pg/mL

From patent US20250147051A1, “METHOD FOR DETECTING A TAU PROTEIN IN A SALIVA SAMPLE” (GTINVENT LIMITED, priority 2022, published 2025)
